This note sets out measurements from PMC6044767.

Usually stoichiometry N stands for the number of molecules, sites or subunits per partner or assembly.

For test [1], the target named is native Escherichia coli L-asparaginase II (Kidrolase) (E. coli) (UniProt P00805).
Test [2] has the same target. In words: native gel or EMSA. Background: In EMSA bound probe runs differently from free probe, usually more slowly.
Test [3] shares this target. Nature of the test: SEC.
Test [4] has the same target. This is another data set of the same source.
Test [5] shares this target. Nature of the test: native gel or EMSA. This is another data set of the same source.
In test [6] the target is T1, N21-EcAII (E. coli K12), P00805.
T1 chain: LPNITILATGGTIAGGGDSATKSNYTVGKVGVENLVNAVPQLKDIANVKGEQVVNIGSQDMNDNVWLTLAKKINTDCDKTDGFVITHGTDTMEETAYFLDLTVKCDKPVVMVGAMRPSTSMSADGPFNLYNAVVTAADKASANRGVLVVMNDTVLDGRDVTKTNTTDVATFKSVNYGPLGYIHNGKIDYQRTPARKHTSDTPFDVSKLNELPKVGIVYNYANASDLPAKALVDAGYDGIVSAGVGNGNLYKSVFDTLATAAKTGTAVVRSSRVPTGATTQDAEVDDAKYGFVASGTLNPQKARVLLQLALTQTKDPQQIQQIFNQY
In words: SEC. The settings on record: remark: other sources report otherwise.

For test [7] the target is unchanged. In words: SEC. The settings on record: remark: other sources report otherwise.
Test [8] has as its target T2, N26-EcAII (E. coli K12), P00805.
T2 chain: T1 chain
In words: SEC. The settings on record: remark: other sources report otherwise.

For test [9] the target is unchanged. In words: SEC. The following applies: remark: other sources report otherwise.
Test [10] shares this target. Nature of the test: native gel or EMSA. The settings on record: remark: other sources report otherwise.
The target of test [11] is T3, C8-EcAII (E. coli K12), P00805.
T3 chain: T1 chain
Nature of the test: SEC. The settings on record: remark: other sources report otherwise.

Test [12] has the same target. In words: SEC. The settings on record: remark: other sources report otherwise.
Test [13] has the same target. Nature of the test: native gel or EMSA. The following applies: remark: other sources report otherwise.

Several values for one entry are separate records, joined by “and”; a condition that tells them apart may be missing. Equal entries are not always repeated.

As for “native Escherichia coli L-asparaginase II (Kidrolase) (from UniProt P00805 23-348) (enzyme)”, in test [1], the specific activity in solution (GDH-coupled assay) is 118 U mg^–1. Further, the stoichiometry N in test [2] is 4 and 8 and 12; in test [3], 4 and 8 and 12; in test [5], 8 and 12 and 4. This molecule yielded a specific activity of EcAII immobilized on gold chips (GDH-coupled assay) in test [4] of 310 U mg^–1.

B1: N21-EcAII, P00805 23-348 (enzyme)
chain: T1 chain
Turning to B1, the stoichiometry N in test [6] is 4; in [7], 8 and 12 and 4.

B2: N26-EcAII, P00805 23-348 (enzyme)
chain: T1 chain
As for B2, the stoichiometry N in test [8], in [9] and in test [10] was 4 throughout.

B3: C8-EcAII, P00805 23-348 (enzyme)
chain: T1 chain
Take B3: the stoichiometry N in test [11] is 4; in [12], 4; in [13], 4 and 8. Also, the percent dissociated into monomer in test [13] came to 50%.
